US8785384B2, “Peptide synthesis” (Chemical & Biopharmaceutical Laboratories of Patras, priority 2010, dated 2014)
Where no end group is shown, it is not given here. [ ]: non-standard residue; d: D form. Met(O) = CS(=O)CC[C@H](N)C(=O)O

Assays:
[1] = background statement on earlier attempts at synthetic human relaxins; cited from earlier work
[2] = Solubility of relaxin B-chains (methionine sulphoxide vs non-oxidised); format: physicochemical, human; conditions: compared with RLX1B and RLX2B respectively / non-oxidised analogue

Substance | solubility of non-oxidised B-chain [1] | solubility relative to the corresponding non-oxidised B-chain [2]
RLX2B: Chain B of human relaxin-2, SEQ ID NO: 5 | highly insoluble or hydrophobic | –
RLX1B: Chain B of human relaxin-1, SEQ ID NO: 3 (KWKDDVIKLCGRELVRAQIAICGMSTWS; listed as Homo sapiens) | highly insoluble or hydrophobic | –
Met(O)^24-RLX1B: Met(O)^24-human relaxin 1 B-chain, SEQ ID NO: 6; linear (compound 9) or cyclic (compound 10) form not specified (KWKDDVIKLCGRELVRAQIAICG[Met(O)]STWS; not fully specified; cysteine pairing not given here; listed as Homo sapiens) | – | higher solubility
Met(O)^25-RLX2B: Met(O)^25-human relaxin 2 B-chain, SEQ ID NO: 7; linear (compound 13) or cyclic (compound 14) form not specified | – | higher solubility
